# According to article PMC9700324, “Selection-free endogenous tagging of cell lines by bicistronic co-expression of the surface antigen NGFR” (MethodsX, 2022):
# T1: nLAP-tagged WDR59 (WD Repeat Domain 59), endogenously tagged (human (endogenous in HEK293T)), Q6PJI9
# T1 chain: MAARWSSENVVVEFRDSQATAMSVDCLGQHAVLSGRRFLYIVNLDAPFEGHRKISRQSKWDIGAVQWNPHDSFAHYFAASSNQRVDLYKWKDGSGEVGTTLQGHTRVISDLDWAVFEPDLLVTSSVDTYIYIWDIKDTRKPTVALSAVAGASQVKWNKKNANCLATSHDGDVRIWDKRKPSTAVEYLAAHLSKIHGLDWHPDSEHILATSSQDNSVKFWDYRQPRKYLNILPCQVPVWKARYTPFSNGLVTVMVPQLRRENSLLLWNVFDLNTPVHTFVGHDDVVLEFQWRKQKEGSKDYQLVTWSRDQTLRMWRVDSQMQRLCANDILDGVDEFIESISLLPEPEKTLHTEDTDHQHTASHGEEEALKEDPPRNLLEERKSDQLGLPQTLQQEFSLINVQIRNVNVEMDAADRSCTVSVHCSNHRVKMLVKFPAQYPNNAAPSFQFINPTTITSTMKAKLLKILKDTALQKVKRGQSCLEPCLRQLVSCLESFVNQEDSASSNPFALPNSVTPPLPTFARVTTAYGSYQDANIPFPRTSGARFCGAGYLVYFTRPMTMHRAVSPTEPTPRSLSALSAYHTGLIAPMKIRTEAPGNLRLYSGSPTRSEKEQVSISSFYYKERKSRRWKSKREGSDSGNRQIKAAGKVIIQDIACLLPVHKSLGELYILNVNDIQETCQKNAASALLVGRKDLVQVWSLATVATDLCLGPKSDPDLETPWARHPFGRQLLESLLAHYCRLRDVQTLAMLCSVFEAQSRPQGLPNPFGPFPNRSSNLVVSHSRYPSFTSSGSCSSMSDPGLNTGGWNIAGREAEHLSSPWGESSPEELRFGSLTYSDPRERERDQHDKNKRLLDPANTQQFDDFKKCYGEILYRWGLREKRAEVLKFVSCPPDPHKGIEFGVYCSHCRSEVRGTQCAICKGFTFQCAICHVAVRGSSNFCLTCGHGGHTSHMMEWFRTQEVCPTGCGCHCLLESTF
# T2: nLAP-tagged WDR59 (WD Repeat Domain 59), endogenously tagged (human (endogenous in HEK293T), UniProt Q6PJI9 1-974)
# T2 construct: WDR59 (WD Repeat Domain 59), subunit of GATOR2, human; NGFRETD is split off at the P2A site and is not part of this chain; The tag was inserted in the 5'UTR (donor NGFR "-2"); they are printed only as DNA; also called WDR59-GFP; nLAP-WDR59; source: endogenously tagged allele in HEK (Lenti-X 293T) spCas9+ cells, WDR59-NGFRETD-nLAP clone D5, in lysate; not shown: EGFP, N-terminal, kept
# T2 sequence (looked up): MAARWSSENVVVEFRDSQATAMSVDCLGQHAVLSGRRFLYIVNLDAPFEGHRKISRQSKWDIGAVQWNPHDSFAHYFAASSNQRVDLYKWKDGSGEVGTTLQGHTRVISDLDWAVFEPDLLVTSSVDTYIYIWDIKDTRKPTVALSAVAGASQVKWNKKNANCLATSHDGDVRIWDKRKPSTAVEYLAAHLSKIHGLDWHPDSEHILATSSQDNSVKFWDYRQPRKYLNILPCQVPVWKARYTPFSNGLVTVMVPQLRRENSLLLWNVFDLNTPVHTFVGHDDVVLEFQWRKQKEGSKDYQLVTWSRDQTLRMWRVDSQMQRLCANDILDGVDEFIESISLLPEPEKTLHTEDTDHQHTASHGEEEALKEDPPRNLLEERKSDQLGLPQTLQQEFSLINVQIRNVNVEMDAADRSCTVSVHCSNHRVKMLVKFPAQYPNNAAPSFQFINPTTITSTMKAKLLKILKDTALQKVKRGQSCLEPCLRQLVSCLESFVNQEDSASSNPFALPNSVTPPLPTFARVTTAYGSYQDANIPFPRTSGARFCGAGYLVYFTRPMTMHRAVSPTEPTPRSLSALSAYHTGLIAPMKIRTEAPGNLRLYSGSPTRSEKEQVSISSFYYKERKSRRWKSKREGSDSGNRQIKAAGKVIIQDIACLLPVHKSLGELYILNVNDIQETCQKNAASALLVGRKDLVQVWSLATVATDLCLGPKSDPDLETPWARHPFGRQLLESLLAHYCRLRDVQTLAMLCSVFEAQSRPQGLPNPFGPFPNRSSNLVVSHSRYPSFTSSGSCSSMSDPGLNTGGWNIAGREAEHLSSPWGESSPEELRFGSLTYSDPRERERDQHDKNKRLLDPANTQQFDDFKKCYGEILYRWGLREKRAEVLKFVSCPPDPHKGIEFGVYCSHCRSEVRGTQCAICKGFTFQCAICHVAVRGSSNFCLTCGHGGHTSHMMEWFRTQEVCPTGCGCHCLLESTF
# How the values were obtained:
# [1] = biological target: T1, nLAP-tagged WDR59 (WD Repeat Domain …); assay: co-IP; nLAP-tagged WDR59 precipitated from 1,000-3,000 µg lysate protein with GFP-Trap magnetic agarose beads (GFP-specific nanobodies) overnight at 4°C; CoIP buffer (10 mM Tris-HCl pH 8, 150 mM NaCl, 5 mM EDTA, 0.5% Triton X-100, 60 mM octyl-β-D-glucopyranoside); 5 washes; partners detected by Western blot; cells untreated, amino acid-starved 16 h with or without 60 min stimulation with all amino acids or leucine, …; conditions: remark: other sources report otherwise
# [2] = biological target: T2, nLAP-tagged WDR59 (WD Repeat Domain …); assay: as above; conditions: partners not purified
"co-IP signal after leucine restimulation, fold of the leucine-starved sample [1]","co-IP signal after restimulation with all amino acids, fold of the amino acid-starved sample (normalised to WDR59-GFP) [1]","co-IP signal after restimulation with leucine alone, fold of the amino acid-starved sample (normalised to WDR59-GFP) [1]","co-IP signal after leucine restimulation, fold of the leucine-starved sample [2]","co-IP signal after restimulation with all amino acids, percent of the amino acid-starved sample (normalised to WDR59-GFP) [2]",Binder
2 fold,1.2 fold,1.89 fold,–,–,"NPRL3 (Nitrogen Permease Regulator 3-Like Protein), Q12980 1-569 (natural protein) MRDNTSPISVILVSSGSRGNKLLFRYPFQRSQEHPASQTSKPRSRYAASNTGDHADEQDGDSRFSDVILATILATKSEMCGQKFELKIDNVRFVGHPTLLQHALGQISKTDPSPKREAPTMILFNVVFALRANADPSVINCLHNLSRRIATVLQHEERRCQYLTREAKLILALQDEVSAMADGNEGPQSPFHHILPKCKLARDLKEAYDSLCTSGVVRLHINSWLEVSFCLPHKIHYAASSLIPPEAIERSLKAIRPYHALLLLSDEKSLLGELPIDCSPALVRVIKTTSAVKNLQQLAQDADLALLQVFQLAAHLVYWGKAIIIYPLCENNVYMLSPNASVCLYSPLAEQFSHQFPSHDLPSVLAKFSLPVSLSEFRNPLAPAVQETQLIQMVVWMLQRRLLIQLHTYVCLMASPSEEEPRPREDDVPFTARVGGRSLSTPNALSFGSPTSSDDMTLTSPSMDNSSAELLPSGDSPLNQRMTENLLASLSEHERAAILSVPAAQNPEDLRMFARLLHYFRGRHHLEEIMYNENTRRSQLLMLFDKFRSVLVVTTHEDPVIAVFQALLP"
–,–,–,~2 fold,71%,"WDR24 (WD Repeat Domain 24) (natural protein, human (endogenous in HEK293T), UniProt Q96S15 1-790, looked up, WDR24 (WD Repeat Domain 24), subunit of GATOR2, human, endogenous; also called GATOR2 subunit WDR24; source: endogenous, HEK (Lenti-X 293T) spCas9+ WDR59-NGFRETD-nLAP clone D5 lysate) MEKMSRVTTALGGSVLTGRTMHCHLDAPANAISVCRDAAQVVVAGRSIFKIYAIEEEQFVEKLNLRVGRKPSLNLSCADVVWHQMDENLLATAATNGVVVTWNLGRPSRNKQDQLFTEHKRTVNKVCFHPTEAHVLLSGSQDGFMKCFDLRRKDSVSTFSGQSESVRDVQFSIRDYFTFASTFENGNVQLWDIRRPDRCERMFTAHNGPVFCCDWHPEDRGWLATGGRDKMVKVWDMTTHRAKEMHCVQTIASVARVKWRPECRHHLATCSMMVDHNIYVWDVRRPFVPAAMFEEHRDVTTGIAWRHPHDPSFLLSGSKDSSLCQHLFRDASQPVERANPEGLCYGLFGDLAFAAKESLVAAESGRKPYTGDRRHPIFFKRKLDPAEPFAGLASSALSVFETEPGGGGMRWFVDTAERYALAGRPLAELCDHNAKVARELGRNQVAQTWTMLRIIYCSPGLVPTANLNHSVGKGGSCGLPLMNSFNLKDMAPGLGSETRLDRSKGDARSDTVLLDSSATLITNEDNEETEGSDVPADYLLGDVEGEEDELYLLDPEHAHPEDPECVLPQEAFPLRHEIVDTPPGPEHLQDKADSPHVSGSEADVASLAPVDSSFSLLSVSHALYDSRLPPDFFGVLVRDMLHFYAEQGDVQMAVSVLIVLGERVRKDIDEQTQEHWYTSYIDLLQRFRLWNVSNEVVKLSTSRAVSCLNQASTTLHVNCSHCKRPMSSRGWVCDRCHRCASMCAVCHHVVKGLFVWCQGCSHGGHLQHIMKWLEGSSHCPAGCGHLCEYS"
–,–,–,~2 fold,85%,"MIOS (Meiosis Regulator For Oocyte Development) (natural protein, human (endogenous in HEK293T), UniProt Q9NXC5 1-875, looked up, MIOS (Meiosis Regulator For Oocyte Development), subunit of GATOR2, human, endogenous; also called GATOR2 subunit MIOS; source: endogenous, HEK (Lenti-X 293T) spCas9+ WDR59-NGFRETD-nLAP clone D5 lysate) MSGTKPDILWAPHHVDRFVVCDSELSLYHVESTVNSELKAGSLRLSEDSAATLLSINSDTPYMKCVAWYLNYDPECLLAVGQANGRVVLTSLGQDHNSKFKDLIGKEFVPKHARQCNTLAWNPLDSNWLAAGLDKHRADFSVLIWDICSKYTPDIVPMEKVKLSAGETETTLLVTKPLYELGQNDACLSLCWLPRDQKLLLAGMHRNLAIFDLRNTSQKMFVNTKAVQGVTVDPYFHDRVASFYEGQVAIWDLRKFEKPVLTLTEQPKPLTKVAWCPTRTGLLATLTRDSNIIRLYDMQHTPTPIGDETEPTIIERSVQPCDNYIASFAWHPTSQNRMIVVTPNRTMSDFTVFERISLAWSPITSLMWACGRHLYECTEEENDNSLEKDIATKMRLRALSRYGLDTEQVWRNHILAGNEDPQLKSLWYTLHFMKQYTEDMDQKSPGNKGSLVYAGIKSIVKSSLGMVESSRHNWSGLDKQSDIQNLNEERILALQLCGWIKKGTDVDVGPFLNSLVQEGEWERAAAVALFNLDIRRAIQILNEGASSEKGDLNLNVVAMALSGYTDEKNSLWREMCSTLRLQLNNPYLCVMFAFLTSETGSYDGVLYENKVAVRDRVAFACKFLSDTQLNRYIEKLTNEMKEAGNLEGILLTGLTKDGVDLMESYVDRTGDVQTASYCMLQGSPLDVLKDERVQYWIENYRNLLDAWRFWHKRAEFDIHRSKLDPSSKPLAQVFVSCNFCGKSISYSCSAVPHQGRGFSQYGVSGSPTKSKVTSCPGCRKPLPRCALCLINMGTPVSSCPGGTKSDEKVDLSKDKKLAQFNNWFTWCHNCRHGGHAGHMLSWFRDHAECPVSACTCKCMQLDTTGNLVPAETVQP"
–,–,–,~2 fold,82%,"Sestrin-2 (SESN2) (natural protein, human (endogenous in HEK293T), UniProt P58004 1-480, looked up, Sestrin-2 (SESN2), leucine-sensing protein, human, endogenous; source: endogenous, HEK (Lenti-X 293T) spCas9+ WDR59-NGFRETD-nLAP clone D5 lysate) MIVADSECRAELKDYLRFAPGGVGDSGPGEEQRESRARRGPRGPSAFIPVEEVLREGAESLEQHLGLEALMSSGRVDNLAVVMGLHPDYFTSFWRLHYLLLHTDGPLASSWRHYIAIMAAARHQCSYLVGSHMAEFLQTGGDPEWLLGLHRAPEKLRKLSEINKLLAHRPWLITKEHIQALLKTGEHTWSLAELIQALVLLTHCHSLSSFVFGCGILPEGDADGSPAPQAPTPPSEQSSPPSRDPLNNSGGFESARDVEALMERMQQLQESLLRDEGTSQEEMESRFELEKSESLLVTPSADILEPSPHPDMLCFVEDPTFGYEDFTRRGAQAPPTFRAQDYTWEDHGYSLIQRLYPEGGQLLDEKFQAAYSLTYNTIAMHSGVDTSVLRRAIWNYIHCVFGIRYDDYDYGEVNQLLERNLKVYIKTVACYPEKTTRRMYNLFWRHFRHSEKVHVNLLLLEARMQAALLYALRAITRYMT"
